Tests used:
[1] = substrate: COc1ccc2c(CC(=O)N[C@H](CCCNC(=N)N)C(=O)N3CCC[C@H]3C(=O)N[C@@H](CC(C)C)C(=O)NCC(=O)N[C@@H](CCCCOCc3ccccc3)C(=O)N[C@@H](CNc3ccc([N+](=O)[O-])cc3[N+](=O)[O-])C(=O)N[C@@H](C)C(=O)N[C@H](CCCNC(=N)N)C(=O)N[C@H](CCC(=O)O)C(=O)N[C@H](CCCNC(=N)N)C(N)=O)cc(=O)oc2c1; assay: Km and kcat/Km of substrates with MMP-9; type: biochemical; conditions: other: substrate cleavage by MMP-9
[2] = substrate: COc1ccc2c(CC(=O)N[C@@H](CCCNC(=N)N)C(=O)N3CCC[C@H]3C(=O)N[C@@H](CC(C)C)C(=O)NCC(=O)N[C@@H](CCCCOCc3ccccc3)C(=O)N[C@@H](CNc3ccc([N+](=O)[O-])cc3[N+](=O)[O-])C(=O)N[C@@H](C)C(=O)N[C@@H](CCCNC(=N)N)C(=O)N[C@@H](CCC(=O)O)C(=O)N[C@@H](CCCNC(=N)N)C(N)=O)cc(=O)oc2c1; assay: Km and kcat/Km of substrates with MMP-9; type: biochemical; conditions: other: substrate cleavage by MMP-9
[3] = substrate: COc1ccc2c(CC(=O)N[C@H](CCCNC(=N)N)C(=O)N3CCC[C@H]3C(=O)N[C@@H](CC(C)C)C(=O)NCC(=O)N[C@@H](CCCCOc3ccccc3)C(=O)N[C@@H](CNc3ccc([N+](=O)[O-])cc3[N+](=O)[O-])C(=O)N[C@@H](C)C(=O)N[C@H](CCCNC(=N)N)C(=O)N[C@H](CCC(=O)O)C(=O)N[C@H](CCCNC(=N)N)C(N)=O)cc(=O)oc2c1; assay: Km and kcat/Km of substrates with MMP-9; type: biochemical; conditions: other: substrate cleavage by MMP-9
[4] = substrate: COc1ccc2c(CC(=O)N[C@@H](CCCNC(=N)N)C(=O)N3CCCC3C(=O)N[C@@H](CC(C)C)C(=O)NCC(=O)N[C@@H](CC(C)C)C(=O)N[C@H](CNc3ccc([N+](=O)[O-])cc3[N+](=O)[O-])C(=O)N[C@@H](C)C(=O)N[C@H](CCCNC(=N)N)C(=O)N[C@@H](CCC(=O)O)C(=O)N[C@H](CCCNC(=N)N)C(N)=O)cc(=O)oc2c1; assay: Km and kcat/Km of substrates with MMP-9; type: biochemical; conditions: other: substrate cleavage by MMP-9
[5] = substrate: COc1ccc2c(CC(=O)N[C@@H](CCCNC(=N)N)C(=O)N3CCC[C@@H]3C(=O)N[C@@H](CC(C)C)C(=O)NCC(=O)N[C@@H](CC(C)C)C(=O)N[C@H](CNc3ccc([N+](=O)[O-])cc3[N+](=O)[O-])C(=O)N[C@@H](C)C(=O)N[C@H](CCCNC(=N)N)C(=O)N[C@@H](CCC(=O)O)C(=O)N[C@H](CCCNC(=N)N)C(N)=O)cc(=O)oc2c1; assay: purified protein, by the assay type; conditions: other: substrate cleavage by MMP-9
[6] = substrate: COc1ccc2c(CC(=O)N[C@@H](CCCNC(=N)N)C(=O)N3CCCC3C(=O)N[C@@H](CC(C)C)C(=O)NCC(=O)N[C@@H](CC(C)C)C(=O)N[C@H](CNc3ccc([N+](=O)[O-])cc3[N+](=O)[O-])C(=O)N[C@@H](C)C(=O)N[C@H](CCCNC(=N)N)C(=O)N[C@@H](CCC(=O)O)C(=O)N[C@H](CCCNC(=N)N)C(N)=O)cc(=O)oc2c1; assay: purified protein, by the assay type; conditions: other: substrate cleavage by MMP-9
[7] = substrate: COc1ccc2c(CC(=O)N[C@H](CCCNC(=N)N)C(=O)N3CCC[C@H]3C(=O)N[C@@H](CC(C)C)C(=O)NCC(=O)N[C@@H](CCCCOCc3ccccc3)C(=O)N[C@@H](CNc3ccc([N+](=O)[O-])cc3[N+](=O)[O-])C(=O)N[C@@H](C)C(=O)N[C@H](CCCNC(=N)N)C(=O)N[C@H](CCC(=O)O)C(=O)N[C@H](CCCNC(=N)N)C(N)=O)cc(=O)oc2c1; assay: Km and kcat/Km of substrates with MMP-2; type: biochemical; conditions: other: substrate cleavage by MMP-2
[8] = substrate: COc1ccc2c(CC(=O)N[C@@H](CCCNC(=N)N)C(=O)N3CCC[C@@H]3C(=O)N[C@@H](CC(C)C)C(=O)NCC(=O)N[C@@H](CC(C)C)C(=O)N[C@H](CNc3ccc([N+](=O)[O-])cc3[N+](=O)[O-])C(=O)N[C@@H](C)C(=O)N[C@H](CCCNC(=N)N)C(=O)N[C@@H](CCC(=O)O)C(=O)N[C@H](CCCNC(=N)N)C(N)=O)cc(=O)oc2c1; assay: Km and kcat/Km of substrates with MMP-2; type: biochemical; conditions: other: substrate cleavage by MMP-2
[9] = substrate: COc1ccc2c(CC(=O)N[C@@H](CCCNC(=N)N)C(=O)N3CCC[C@H]3C(=O)N[C@@H](CC(C)C)C(=O)NCC(=O)N[C@@H](CCCCOCc3ccccc3)C(=O)N[C@@H](CNc3ccc([N+](=O)[O-])cc3[N+](=O)[O-])C(=O)N[C@@H](C)C(=O)N[C@@H](CCCNC(=N)N)C(=O)N[C@@H](CCC(=O)O)C(=O)N[C@@H](CCCNC(=N)N)C(N)=O)cc(=O)oc2c1; assay: Km and kcat/Km of substrates with MMP-2; type: biochemical; conditions: other: substrate cleavage by MMP-2
[10] = substrate: COc1ccc2c(CC(=O)N[C@H](CCCNC(=N)N)C(=O)N3CCC[C@H]3C(=O)N[C@@H](CC(C)C)C(=O)NCC(=O)N[C@@H](CCCCOc3ccccc3)C(=O)N[C@@H](CNc3ccc([N+](=O)[O-])cc3[N+](=O)[O-])C(=O)N[C@@H](C)C(=O)N[C@H](CCCNC(=N)N)C(=O)N[C@H](CCC(=O)O)C(=O)N[C@H](CCCNC(=N)N)C(N)=O)cc(=O)oc2c1; assay: Km and kcat/Km of substrates with MMP-2; type: biochemical; conditions: other: substrate cleavage by MMP-2
[11] = substrate: COc1ccc2c(CC(=O)N[C@H](CCCNC(=N)N)C(=O)N3CCC[C@H]3C(=O)N[C@@H](CC(C)C)C(=O)NCC(=O)N[C@@H](CCCCOCc3ccccc3)C(=O)N[C@@H](CNc3ccc([N+](=O)[O-])cc3[N+](=O)[O-])C(=O)N[C@@H](C)C(=O)N[C@H](CCCNC(=N)N)C(=O)N[C@H](CCC(=O)O)C(=O)N[C@H](CCCNC(=N)N)C(N)=O)cc(=O)oc2c1; assay: Km and kcat/Km of substrates with MMP-1; type: biochemical; conditions: other: substrate cleavage by MMP-1
[12] = substrate: COc1ccc2c(CC(=O)N[C@@H](CCCNC(=N)N)C(=O)N3CCC[C@@H]3C(=O)N[C@@H](CC(C)C)C(=O)NCC(=O)N[C@@H](CC(C)C)C(=O)N[C@H](CNc3ccc([N+](=O)[O-])cc3[N+](=O)[O-])C(=O)N[C@@H](C)C(=O)N[C@H](CCCNC(=N)N)C(=O)N[C@@H](CCC(=O)O)C(=O)N[C@H](CCCNC(=N)N)C(N)=O)cc(=O)oc2c1; assay: Km and kcat/Km of substrates with MMP-1; type: biochemical; conditions: other: substrate cleavage by MMP-1
[13] = substrate: COc1ccc2c(CC(=O)N[C@H](CCCNC(=N)N)C(=O)N3CCC[C@H]3C(=O)N[C@@H](CC(C)C)C(=O)NCC(=O)N[C@@H](CCCCOCc3ccccc3)C(=O)N[C@@H](CNc3ccc([N+](=O)[O-])cc3[N+](=O)[O-])C(=O)N[C@@H](C)C(=O)N[C@H](CCCNC(=N)N)C(=O)N[C@H](CCC(=O)O)C(=O)N[C@H](CCCNC(=N)N)C(N)=O)cc(=O)oc2c1; assay: Km and kcat/Km of substrates with MMP-7; type: biochemical; conditions: other: substrate cleavage by MMP-7
[14] = substrate: COc1ccc2c(CC(=O)N[C@@H](CCCNC(=N)N)C(=O)N3CCC[C@@H]3C(=O)N[C@@H](CC(C)C)C(=O)NCC(=O)N[C@@H](CC(C)C)C(=O)N[C@H](CNc3ccc([N+](=O)[O-])cc3[N+](=O)[O-])C(=O)N[C@@H](C)C(=O)N[C@H](CCCNC(=N)N)C(=O)N[C@@H](CCC(=O)O)C(=O)N[C@H](CCCNC(=N)N)C(N)=O)cc(=O)oc2c1; assay: Km and kcat/Km of substrates with MMP-7; type: biochemical; conditions: other: substrate cleavage by MMP-7

B1: MMP-9 (Homo sapiens) (protein)
chain: MRTPRCGVPDLGRFQTFEGDLKWHHHNITYWIQNYSEDLPRAVIDDAFARAFALWSAVTPLTFTRVYSRDADIVIQFGVAEHGDGYPFDGKDGLLAHAFPPGPGIQGDAHFDDDELWSLGKGVVVPTRFGNADGAACHFPFIFEGRSYSACTTDGRSDGLPWCSTTANYDTDDRFGFCPSERLYTQDGNADGKPCQFPFIFQGQSYSACTTDGRSDGYRWCATTANYDRDKLFGFCPTRADSTVMGGNSAGELCVFPFTFLGKEYSTCTSEGRGDGRLWCATTSNFDSDKKWGFCPDQGYSLFLVAAHEFGHALGLDHSSVPEALMYPMYRFTEGPPLHKDDVNGIRHLYGPRPEPEPRPPTTTTPQPTAPPTVCPTGPPTVHPSERPTAGPTGPPSAGPTGPPTAGPSTATTVPLSPVDDACNVNIFDAIAEIGNQLYLFKDGKYWRFSEGRGSRPQGPFLIADKWPALPRKLDSVFEERLSKKLFFFSGRQVWVYTGASVLGPRRLDKLGLGADVAQVTGALRSGRGKMLLFSGRRLWRFDVKAQMVDPRSASEVDRMFPGVPLDTHDVFQYREKAYFCQDRFYWRVSSRSELNQVDQVGYVTYDILQCPED
- Km [1]: 3.3 µM
- kcat/Km [1]: 31.9 M^−1s^−1×10^4
- Km [2]: 2.3 µM
- kcat/Km [2]: 147 M^−1s^−1×10^4
- Km [3]: 1.4 µM
- kcat/Km [3]: 191 M^−1s^−1×10^4
- Km [4]: 6.2 µM
- kcat/Km [4]: 129 M^−1s^−1×10^4
- Km [5]: 6.4 µM
- kcat/Km [5]: 41.8 M^−1s^−1×10^4
- Km [6]: 8.2 µM
- kcat/Km [6]: 133 M^−1s^−1×10^4

B2: MMP-2 (Homo sapiens) (protein)
chain: YNFFPRKPKWDKNQITYRIIGYTPDLDPETVDDAFARAFQVWSDVTPLRFSRIHDGEADIMINFGRWEHGDGYPFDGKDGLLAHAFAPGTGVGGDSHFDDDELWTLGEGQVVRVKYGNADGEYCKFPFLFNGKEYNSCTDTGRSDGFLWCSTTYNFEKDGKYGFCPHEALFTMGGNAEGQPCKFPFRFQGTSYDSCTTEGRTDGYRWCGTTEDYDRDKKYGFCPETAMSTVGGNSEGAPCVFPFTFLGNKYESCTSAGRSDGKMWCATTANYDDDRKWGFCPDQGYSLFLVAAHEFGHAMGLEHSQDPGALMAPIYTYTKNFRLSQDDIKGIQELYGASPDIDLGTGPTPTLGPVTPEICKQDIVFDGIAQIRGEIFFFKDRFIWRTVTPRDKPMGPLLVATFWPELPEKIDAVYEAPQEEKAVFFAGNEYWIYSASTLERGYPKPLTSLGLPPDVQRVDAAFNWSKNKKTYIFAGDKFWRYNEVKKKMDPGFPKLIADAWNAIPDNLDAVVDLQGGGHSYFFKGAYYLKLENQSLKSVKFGSIKSDWLGC
- Km [7]: 3.7 µM
- kcat/Km [7]: 60 M^−1s^−1×10^4
- Km [8]: 9.9 µM
- kcat/Km [8]: 17.8 M^−1s^−1×10^4
- Km [9]: 8.3 µM
- kcat/Km [9]: 134 M^−1s^−1×10^4
- Km [10]: 3.6 µM
- kcat/Km [10]: 196 M^−1s^−1×10^4

B3: MMP-1 (Homo sapiens) (protein)
chain: FVLTEGNPRWEQTHLTYRIENYTPDLPRADVDHAIEKAFQLWSNVTPLTFTKVSEGQADIMISFVRGDHRDNSPFDGPGGNLAHAFQPGPGIGGDAHFDEDERWTNNFREYNLHRVAAHELGHSLGLSHSTDIGALMYPSYTFSGDVQLAQDDIDGIQAIYGRSQNPVQPIGPQTPKACDSKLTFDAITTIRGEVMFFKDRFYMRTNPFYPEVELNFISVFWPQLPNGLEAAYEFADRDEVRFFKGNKYWAVQGQNVLHGYPKDIYSSFGFPRTVKHIDAALSEENTGKTYFFVANKYWRYDEYKRSMDPGYPKMIAHDFPGIGHKVDAVFMKDGFFYFFHGTRQYKFDPKTKRILTLQKANSWFNCRKN
- Km [11]: 35.1 µM
- kcat/Km [11]: 0.36 M^−1s^−1×10^4
- Km [12]: 49 µM
- kcat/Km [12]: 5.7 M^−1s^−1×10^4

B4: MMP-7 (Homo sapiens) (protein)
chain: YSLFPNSPKWTSKVVTYRIVSYTRDLPHITVDRLVSKALNMWGKEIPLHFRKVVWGTADIMIGFARGAHGDSYPFDGPGNTLAHAFAPGTGLGGDAHFDEDERWTDGSSLGINFLYAATHELGHSLGMGHSSDPNAVMYPTYGNGDPQNFKLSQDDIKGIQKLYGKRSNSRKK
- Km [13]: 94.7 µM
- kcat/Km [13]: 0.298 M^−1s^−1×10^4
- Km [14]: 81.2 µM
- kcat/Km [14]: 2.2 M^−1s^−1×10^4

From US20040018561A1, “Peptide compounds and their use as protease substrates” (priority 2002, published 2004)
